B1: PLAGL1 (parent)
chain: TKEKKHQCDHCERCFYTRKDVRRH

Variants of: B1
Assay: protein stability index of a GFP-peptide fusion (GPS, HEK-293T) (PSI 1-6); higher = more stable
Conditions: c terminus: a fixed tail appended
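Further: lentivirally expressed fusions sorted by FACS into six bins by GFP to DsRed ratio, PSI derived from sequencing read proportions per bin multiplied by bin number.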

| Variant | protein stability index |
| --- | --- |
| TKEKKHQCDGCERCFYTRKDVRRH [H10G] | 4.13 |
| TKEKKHQCDSCERCFYTRKDVRRH [H10S] | 3.68 |
| TKEKKHQCDLCERCFYTRKDVRRH [H10L] | 2.55 |
| TKEKKHQCDRCERCFYTRKDVRRH [H10R] | 3.41 |
| TKEKKHQCDCCERCFYTRKDVRRH [H10C] | 3.33 |
| TKEKKHQCDVCERCFYTRKDVRRH [H10V] | 3.37 |
| TKEKKHQCDNCERCFYTRKDVRRH [H10N] | 3.6 |
| TKEKKHQCDMCERCFYTRKDVRRH [H10M] | 3.33 |
| TKEKKHQCDFCERCFYTRKDVRRH [H10F] | 2.36 |
| TKEKKHQCDECERCFYTRKDVRRH [H10E] | 3.37 |
| TKEKKHQCDACERCFYTRKDVRRH [H10A] | 3.33 |
| TKEKKHQCDQCERCFYTRKDVRRH [H10Q] | 3.47 |
| TKEKKHQCDDCERCFYTRKDVRRH [H10D] | 3.79 |
| TKEKKHQCDICERCFYTRKDVRRH [H10I] | 2.71 |
| TKEKKHQCDKCERCFYTRKDVRRH [H10K] | 3.91 |
| TKEKKHQCDTCERCFYTRKDVRRH [H10T] | 3.37 |
| TKEKKHQCDPCERCFYTRKDVRRH [H10P] | 3.4 |
| TKEKKHQCLHCERCFYTRKDVRRH [D9L] | 2.98 |
| TKEKKHQCYHCERCFYTRKDVRRH [D9Y] | 2.46 |
| TKEKKHQCAHCERCFYTRKDVRRH [D9A] | 2.67 |
| TKEKKHQCPHCERCFYTRKDVRRH [D9P] | 3.11 |
| TKEKKHQCGHCERCFYTRKDVRRH [D9G] | 3.66 |
| TKEKKHQCIHCERCFYTRKDVRRH [D9I] | 2.53 |
| TKEKKHQCKHCERCFYTRKDVRRH [D9K] | 3.24 |

| Variant | protein stability index |
| --- | --- |
| TKEKKHQCCHCERCFYTRKDVRRH [D9C] | 3.14 |
| TKEKKHQCVHCERCFYTRKDVRRH [D9V] | 2.47 |
| TKEKKHQCHHCERCFYTRKDVRRH [D9H] | 3.02 |
| TKEKKHQCTHCERCFYTRKDVRRH [D9T] | 2.92 |
| TKEKKHQCSHCERCFYTRKDVRRH [D9S] | 3.14 |
| TKEKKHQCMHCERCFYTRKDVRRH [D9M] | 3.5 |
| TKEKKHQCWHCERCFYTRKDVRRH [D9W] | 2.84 |
| TKEKKHQCQHCERCFYTRKDVRRH [D9Q] | 3 |
| TKEKKHQCEHCERCFYTRKDVRRH [D9E] | 3.32 |
| TKEKKHQCFHCERCFYTRKDVRRH [D9F] | 2.31 |
| TKEKKHQCNHCERCFYTRKDVRRH [D9N] | 4.02 |
| TKEKKHQCRHCERCFYTRKDVRRH [D9R] | 2.92 |
| TQEKKHQCDHCERCFYTRKDVRRH [K2Q] | 3.67 |
| TREKKHQCDHCERCFYTRKDVRRH [K2R] | 3.77 |
| TLEKKHQCDHCERCFYTRKDVRRH [K2L] | 2.75 |
| TCEKKHQCDHCERCFYTRKDVRRH [K2C] | 3.25 |
| TIEKKHQCDHCERCFYTRKDVRRH [K2I] | 3.08 |
| TSEKKHQCDHCERCFYTRKDVRRH [K2S] | 3.39 |
| TMEKKHQCDHCERCFYTRKDVRRH [K2M] | 3.71 |
| TEEKKHQCDHCERCFYTRKDVRRH [K2E] | 3.65 |
| TTEKKHQCDHCERCFYTRKDVRRH [K2T] | 3.67 |
| TDEKKHQCDHCERCFYTRKDVRRH [K2D] | 4.04 |
| TFEKKHQCDHCERCFYTRKDVRRH [K2F] | 3.02 |
